Laboratory results from patent publication US20040102606A1, “Histone H2A -derived peptides useful in gene delivery” (priority 2003, published 2004).

Tested on: syngeneic mouse model of neuroblastoma
Assay: Vaccination with histone H2A-transfected NXS2 cells, syngeneic mouse model of neuroblastoma
Type: in vivo
Settings: subcutaneous immunization, histone H2A transient transfection; challenge with wild type tumor cells
Description: The present invention also contemplates use of the H2A-derived peptides to facilitate gene delivery in vivo. This embodiment is based on the successful subcutaneous immunization in a novel syngeneic mouse model of neuroblastoma with a single chain IL-12 fusion protein that was mediated by histone H2A transient transfection.
For this approach with intact histone H2A and also extendable to the peptides of this invention, mouse IL-2 and scIL-12 were cloned into the expression vector pcDNA3.1 (Invitrogen, Carlsbad, Calif.) as previously described (Lode et al., Proc. Natl. Acad. Sci., USA, 95:2475-2480, 1998). […] Supercoiled DNA was quantitated on 0.9% agarose gels using Stratagene's Eagle Eye. […] production was quantified on a 24 hour basis in cell culture supernatants using an ELISA assay kit (Biosource, Camarillo, Calif.) and compared with standard preparations of these cytokines. […]
NXS2 cells were tested routinely for the absence of mycoplasma contamination (Gen Probe® Mycoplasma Rapid Detection System, Fisher Scientific, Pittsburgh, Pa.). […] Cell viability was determined using trypan blue staining (Life Technologies, Gaithersburg, Md.), and the number of viable cells per experimental condition were determined. […]

B1: IL-2: mouse IL-2 expressed from pcDNA3.1 in transfected NXS2 cells (protein, UniProt P04351 21-169, looked up)
Interleukin-2: APTSSSTSSSTAEAQQQQQQQQQQQQHLEQLLMDLQELLSRMENYRNLKLPRMLTFKFYLPKQATELKDLQCLEDELGPLRHVLDLTQSKSFQLEDAENFISNIRVTVVKLKGSDNTFECQFDDESATVVDFLRRWIAFCQSIISTSPQ
  tumor immunity: no tumor immunity
